Experimental data published in patent US20220363770A1 (Amgen, published 2022).
Where a chain is given by its changes, count along the chain named. Numbers in names are those of the source. Values belong to the binder of their own block, whether it stands above or below them.

Assays:
[1] = molecular target: T1, soluble CGRP receptor (ECDs of human CRLR and human RAMP1) (human, UniProt Q16602 23-133; O60894 26-117); experiment: SPR (Biacore T200), antibody captured, soluble CGRP receptor as analyte
T1 construct: complex treated with thrombin before crystallization; also called soluble human CGRP receptor; CRLR ECD/RAMP1 ECD heterodimer
T1 sequence (Q16602 23-133, chain 1 of 2): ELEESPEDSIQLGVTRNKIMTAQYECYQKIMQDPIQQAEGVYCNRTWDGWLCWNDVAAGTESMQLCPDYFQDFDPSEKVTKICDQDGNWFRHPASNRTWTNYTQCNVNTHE
T1 sequence (O60894 26-117, chain 2 of 2): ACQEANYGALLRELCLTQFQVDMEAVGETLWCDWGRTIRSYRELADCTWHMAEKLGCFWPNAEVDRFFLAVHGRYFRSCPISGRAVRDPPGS

[2] = molecular target: T2, soluble CGRP receptor (extracellular domains of human CRLR and human RAMP1) (human, UniProt Q16602 23-133; O60894 26-117); experiment: SPR (Biacore T200), antibody captured by goat anti-human Fc, soluble CGRP receptor as analyte
T2 construct: the tag and the thrombin site are not described; also called soluble human CGRP receptor; CGRP receptor ECD
T2 sequence (Q16602 23-133, chain 1 of 2): as the sequence (Q16602 23-133, chain 1 of 2) above
T2 sequence (O60894 26-117, chain 2 of 2): as the sequence (O60894 26-117, chain 2 of 2) above

[3] = molecular target: T3, human PAC1 receptor on SH-SY5Y (CRL-2266) cells (human, UniProt P41586 24-468); experiment: cell-based or functional assay
T3 sequence: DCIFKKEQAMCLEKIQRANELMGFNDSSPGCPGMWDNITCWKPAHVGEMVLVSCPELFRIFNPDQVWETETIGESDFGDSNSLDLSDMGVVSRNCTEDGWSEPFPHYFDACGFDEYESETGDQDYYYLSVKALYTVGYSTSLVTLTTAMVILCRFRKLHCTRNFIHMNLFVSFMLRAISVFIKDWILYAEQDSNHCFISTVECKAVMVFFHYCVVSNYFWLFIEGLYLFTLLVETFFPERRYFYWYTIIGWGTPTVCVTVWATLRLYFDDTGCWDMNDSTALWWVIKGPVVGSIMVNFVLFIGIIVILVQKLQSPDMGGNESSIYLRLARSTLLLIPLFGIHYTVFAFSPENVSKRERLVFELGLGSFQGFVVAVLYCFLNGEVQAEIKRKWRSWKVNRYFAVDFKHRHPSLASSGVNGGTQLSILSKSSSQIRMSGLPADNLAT

[4] = molecular target: human CGRP receptor (human CRLR / human RAMP1 heterodimer) on SK-N-MC (HTB-10) cells (human, UniProt Q16602 23-461; O60894 27-148); experiment: cell-based or functional assay
Sequence of human CGRP receptor (human CRLR / human RAMP1 heterodimer) on SK-N-MC (HTB-10) cells (Q16602 23-461 limits assumed, chain 1 of 2): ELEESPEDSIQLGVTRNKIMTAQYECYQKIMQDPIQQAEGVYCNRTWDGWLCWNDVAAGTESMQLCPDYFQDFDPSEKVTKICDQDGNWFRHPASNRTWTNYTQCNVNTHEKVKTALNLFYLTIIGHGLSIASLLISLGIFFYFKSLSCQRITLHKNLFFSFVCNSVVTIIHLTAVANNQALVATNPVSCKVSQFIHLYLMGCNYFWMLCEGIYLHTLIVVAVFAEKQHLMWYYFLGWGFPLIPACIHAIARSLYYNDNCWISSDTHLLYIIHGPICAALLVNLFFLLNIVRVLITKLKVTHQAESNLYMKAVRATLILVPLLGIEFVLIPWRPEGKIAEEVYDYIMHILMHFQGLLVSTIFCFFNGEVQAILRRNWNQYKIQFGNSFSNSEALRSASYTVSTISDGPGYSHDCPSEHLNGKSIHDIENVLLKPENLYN
Sequence of human CGRP receptor (human CRLR / human RAMP1 heterodimer) on SK-N-MC (HTB-10) cells (O60894 27-148 limits assumed, chain 2 of 2): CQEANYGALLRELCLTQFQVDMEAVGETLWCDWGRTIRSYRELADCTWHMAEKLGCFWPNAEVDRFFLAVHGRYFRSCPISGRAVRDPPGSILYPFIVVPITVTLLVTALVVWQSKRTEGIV

fold faster dissociation rate against wild-type 4E4 [1]: ~5 fold
B1: 4E4 single-point alanine variant antibody H_D54A (antibody, V domains shown)
VH: QVQLVESGGGVVQPGRSLRLSCAASGFTFSSFGMHWVRQAPGKGLEWVAVISFAGSIKYSVDSVKGRFTISRDNSKNTLFLQMNSLRAEDTAVYYCARDRLNYYDSSGYYHYKYYGMAVWGQGTTVTVSS
VL: QSVLTQPPSVSAAPGQKVTISCSGSSSNIGNNYVSWYQQLPGTAPKLLIYDNNKRPSGIPDRFSGSKSGTSTTLGITGLQTGDEADYYCGTWDSRLSAVVFGGGTKLTVLG
notes: Recombinantly expressed as monoclonal antibody; also called CDRH2 D54A antibody variant

B2: 4E4 single-point alanine variant antibody H_Y104A (antibody, V domains shown)
VH: B1 VH with A54D, Y104A
VL: B1 VL
notes: Recombinantly expressed as monoclonal antibody
binding result [1]: no binding (tested: 1000 nM (highest analyte concentration))

B3: 4E4 single-point alanine variant antibody H_Y109A (antibody, V domains shown)
VH: B1 VH with A54D, Y109A
VL: B1 VL
notes: as for B2
binding result [1]: no binding (tested: 1000 nM (highest analyte concentration))

B4: 4E4 heavy chain Y103A single-point alanine variant antibody (antibody, V domains shown)
VH: B1 VH with A54D, Y103A
VL: B1 VL
notes: Recombinantly expressed as a monoclonal antibody
binding result [2]: no binding (tested: soluble CGRP receptor up to 1000 nM)

B5: 4E4 heavy chain Y104A single-point alanine variant antibody (antibody, V domains shown)
VH: B1 VH with A54D, Y104A
VL: B1 VL
notes: as for B4
binding result [2]: no binding (tested: soluble CGRP receptor up to 1000 nM)

B6: 4E4 heavy chain Y109A single-point alanine variant antibody (antibody, V domains shown)
VH: B1 VH with A54D, Y109A
VL: B1 VL
notes: as for B4
binding result [2]: no binding (tested: soluble CGRP receptor up to 1000 nM)

B7: 4E4 heavy chain Y110A single-point alanine variant antibody (antibody, V domains shown)
VH: B1 VH with A54D, Y110A
VL: B1 VL
notes: as for B4
binding result [2]: no binding (tested: soluble CGRP receptor up to 1000 nM)

B8: 4E4 single-point alanine variant antibody H_Y103A (antibody, V domains shown)
VH: B1 VH with A54D, Y103A
VL: B1 VL
notes: as for B2
binding result [1]: no binding (tested: 1000 nM (highest analyte concentration))

B9: 4E4 single-point alanine variant antibody H_Y110A (antibody, V domains shown)
VH: B1 VH with A54D, Y110A
VL: B1 VL
notes: as for B2
binding result [1]: no binding (tested: 1000 nM (highest analyte concentration))

Fold-improvement over 29G4v22 Ab (human PAC1 receptor IC50) [3]: 3.1 fold
Human PAC1 Receptor IC50 (nM), cell-based cAMP assay [3]: 1.34 nM
Fold-improvement over 4E4 Ab (human CGRP receptor IC50) [4]: 0.9 fold
Human CGRP Receptor IC50 (nM), cell-based cAMP assay [4]: 0.6 nM
B10: iPS:571025 (5605) anti-CGRP receptor/anti-PAC1 receptor bispecific hetero-immunoglobulin (bispecific antibody, human IgG1, kappa, lambda, N297G)
light 1: QSVLTQPPSVSAAPGQKVTISCSGSYSNIGRYSVSWYQQLPGTAPKLLIYDNNKRPSGIPDRFSGSKSGTSATLGITGLQTGDEADYYCGTWDSRLSAVVFGGGTKLTVLGQPKAAPSVTLFPPSSEELQANKATLVCLISDFYPGAVTVAWKADSSPVKAGVETTTPSKQSNNKYAAKSYLSLTPEQWKSHRSYSCQVTHEGSTVEKTVAPTECS
heavy 1: QVQLVESGGGVVQPGRSLRLSCAASGFTFSSFGMHWVRQAPGKGLEWVAVISFDGSIKYSVDSVKGRFTISRDNSKNTLFLQMNSLRAEDTAVYYCARDRLNYYESSGYYHYKYYGMAVWGQGTTVTVSSASTKGPSVFPLAPSSKSTSGGTAALGCLVKDYFPEPVTVSWNSGALTSGVHTFPAVLQSSGLYSLESVVTVPSSSLGTQTYICNVNHKPSNTKVDKKVEPKSCDKTHTCPPCPAPELLGGPSVFLFPPKPKDTLYITREPEVTCVVVDVSHEDPEVKFNWYVDGVEVHNAKTKPCEEQYGSTYRCVSVLTVLHQDWLNGKEYKCKVSNKALPAPIEKTISKAKGQPREPQVYTLPPSRKEMTKNQVSLTCLVKGFYPSDIAVEWESNGQPENNYKTTPPVLKSDGSFFLYSKLTVDKSRWQQGNVFSCSVMHEALHNHYTQKSLSLSPGK
light 2: EIVLTQSPATLSLSPGERATLSCRASKSVGRSLHWYQQKPGQAPRLLIKYASQSLSGIPARFSGSGSGTDFTLTISSLEPEDFAVYYCHQSSRLPFTFGPGTKVDIKRTVAAPSVFIFPPSDEQLKSGTASVVCLLNNFYPREAKVQWKVDNALQSGNSQESVTEQDSKDSTYSLESTLTLSKADYEKHKVYACEVTHQGLSSPVTKSFNRGEC
heavy 2: not shown

Fold-improvement over 29G4v22 Ab (human PAC1 receptor IC50) [3]: 4.4 fold
Human PAC1 Receptor IC50 (nM), cell-based cAMP assay [3]: 0.88 nM
Fold-improvement over 4E4 Ab (human CGRP receptor IC50) [4]: 0.9 fold
Human CGRP Receptor IC50 (nM), cell-based cAMP assay [4]: 0.63 nM
B11: iPS:571023 (5607) anti-CGRP receptor/anti-PAC1 receptor bispecific hetero-immunoglobulin (bispecific antibody, human IgG1, kappa, lambda, N297G)
light 1: B10 light 1
heavy 1: B10 heavy 1 with Y265M, T267S, E269T
light 2: B10 light 2
heavy 2: not shown

Fold-improvement over 29G4v22 Ab (human PAC1 receptor IC50) [3]: 6.6 fold
Human PAC1 Receptor IC50 (nM), cell-based cAMP assay [3]: 0.62 nM
Fold-improvement over 4E4 Ab (human CGRP receptor IC50) [4]: 1.5 fold
Human CGRP Receptor IC50 (nM), cell-based cAMP assay [4]: 0.38 nM
B12: iPS:571824 (5609) anti-CGRP receptor/anti-PAC1 receptor bispecific hetero-immunoglobulin (bispecific antibody, human IgG1, kappa, lambda, N297G)
light 1: B10 light 1
heavy 1: B10 heavy 1 with K369E, E370K
light 2: B10 light 2
heavy 2: not shown

Fold-improvement over 29G4v22 Ab (human PAC1 receptor IC50) [3]: 7.2 fold
Human PAC1 Receptor IC50 (nM), cell-based cAMP assay [3]: 0.57 nM
Fold-improvement over 4E4 Ab (human CGRP receptor IC50) [4]: 1.7 fold
Human CGRP Receptor IC50 (nM), cell-based cAMP assay [4]: 0.33 nM
B13: iPS:571033 (5608) anti-CGRP receptor/anti-PAC1 receptor bispecific hetero-immunoglobulin (bispecific antibody, human IgG1, kappa, lambda, N297G)
light 1: B10 light 1
heavy 1: B10 heavy 1 with Y265M, T267S, E269T, K369E, E370K
light 2: B10 light 2
heavy 2: not shown
